# Test results: paper PMC10303918
# Biological target: recombinant human CA125 (rhCA125) (human) (UniProt Q8WXI7)
substance,measurement,value
recombinant human mesothelin Fc fusion (hrMSLN-Fc) (from UniProt Q13421 296-598),"adhesion of GFP-MSLN transfected HEK 293 T cells on an OVCAR-3 (MSLN+, MUC16+) monolayer in the presence of 1 uM Nb A1; percent of adhesion blocked",> 90%
